This is an account of results in the nanobody polyreactivity screen of Harvey et al. (2022).

The nature of this data set: yeast display, Sf9 membrane polyspecificity reagent, FACS + sequencing; frameworks hold sequencing errors. Put shortly: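 Nanobodies from a synthetic yeast display library (Saccharomyces cerevisiae BJ5465), induced 36–48 hours with galactose, were stained 1 hour at 4 °C with 10% biotinylated, detergent-solubilized Sf9 membrane reagent, enriched on streptavidin microbeads, then FACS-sorted. Anti-HA (expression) and streptavidin (reagent binding) fluorescence set low and high (top ~1%) gates. Polyreactivity labels come from the gate of origin. Genes were colony-PCR amplified, MiSeq 2 × 250 sequenced and filtered by CDR length.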
As for “QVQLVESGGGLVQAGGSLRLSCAASGIIFDLYTKGWYRQAPGKEREFVATINWGGGNTYYADSVKGRFTISRDNAKNTVYLQMNSLKPDDTAVYYCAAAYTWYGYSQAYYYWGQGSQVTVSS”, the “polyreactivity (PSR sort gate)” value was “low polyreactivity”.
The entry for “QVQLVESGGGLVQAGGRLRLSCAASGRIFDTYAMGWYRQAPGKERELVASINWSAGSTYYADSVKGRFTISRDNAMNTVYLQMNSLKPEDTAVYYCATYSSYYWQSSYVYWEFDYWGQGTQVTVSS” is “high polyreactivity”; for “QVQIVESGGGLVQAGGSLRLSCAASGRTFTYYAMGWYRQAPGKERELVARIRSGGSTYYADSVKGRFTISRDNEKNTVYLQMNSLKPEDTAVYYCNADRRSAGLYNYWGQGTQVTVSS” it is “low polyreactivity”; for “QVQLVESGGGLVQAGGSLRLSCAASGRIFHTYAMGWYIQAPGKERELVAAISRSGGSTYYADSVKGRFTISRDNAKNTVYLQMNSLKPEDTAVYYCAADIRGPYGNRYKFYYWGQGTQVTVSS” it is “high polyreactivity”.
Then “QVQLVESGRRLVQAGGSLRLSCAASGLTLYKNGMGWYRKAPGQVRELVAVISRSGGRTYYADSVKGRFTISRDNAKNTVYVQMNSLKPEDTAVYYCAARQYGPRYTYYYWGQGTQVTVSS”, with “high polyreactivity”; and “QVQLVESGGGLVQAGGSLRLSCAASGLIFIAYAMGWYRQATGKERELVAAISSSGGSTYYADSVKGRFTISRDNAKNTVYLQMTSLKREDTAVYYCAADRYAWGTGRYGYWGQGTQVTVSS”, with “low polyreactivity”; and “QVQRVESGGGLVQAGGSLRLSCAASGRIFRYYAMGWYRQAPGKERELVASISRRGGSTNYADSVKGRFTISRDNAKNTVYLQMNSLKPEYTAVYYSNAENWSPRGLYNYWGQGTQVTVSS”, with “high polyreactivity”.
Then “QVQLVESGGGLVQAGGSLRLSCAASGSTFTYYAMGWYRQAPGKERELVAAITGSDGRTYYADSVKGRFTISRDNAKNTVYLQMNSLKPEDTAVYYCAAYFTRYDFRWHTYYYWGQGTQVTVSS”, with “low polyreactivity”; and “QVQLVESGGGLVQAGGSLRLSCAASGRIFSGYVMGWYRQAPGKERELVAAISRSGGSTYYADSVKGRFTISRDNAKNTVYLQMNSLKPEDTAVYYCNAYYRYFRSIYDSWGQGTQVTVSS”, with “high polyreactivity”.
“QVQLVESGGGLVQAGGSLRLSCAASGRTFWYYTMGWYRQAPGKERELVAAISRSGGSTYYADSVKGRFTISRDNAKNTVYLQMNSLKPEDSAVYFCAAGVQSSVYPYYRFDYWGQGTQVTVSS”: the “polyreactivity (PSR sort gate)” value is “high polyreactivity”.
The entry for “QVQLVETGGGLVQAGGSLRLSCAASGITFFEYAMGWYRQAPGKERELVAGIRYSGSTTYYSDSVKGRFTISRDNAKNTVYLQMNSLKPEDSAVYYCNVDYYSGLYDYYSWGQGTQVTVSS” is “low polyreactivity”.
For “QVQLVESGGGLVQAGGSLRLSCAASGNILLFNAMGWYRQAPGKERELVATINQSGGRTYYADSVKGRFTISRDNAKNTVYLQMNSLKPEDTAVYYCAATYVYWTWGYDYWGQGTLVTVSS”, the “polyreactivity (PSR sort gate)” value is given as “low polyreactivity”.
Consider “QVQHVESGGGIVQAGGSLRLSCAASGSTFWRNAMGWYRQAPGKEREFVASISWSGGGTYYADSVKGRFTISRDNEKNTVYLQMNSLKPEDTAVYYCAATPDWSYWYGNGDYDYWGQVTQVTVSS”, for which the “polyreactivity (PSR sort gate)” value is given as “low polyreactivity”.
Then “QVQLVESGGGLVQAGGSLRLSCAASGSIFYSNAMGWYRQAPGKERELVAAISGSGGTTYYADSVKGRFTISRDNAKNTVYIQMNSLKPEDTAVYYCAAKPRVRVRLSDYWGQGTQVTVSS”, with “high polyreactivity”.
The entry for “QVQLVESGGGLVQAGGSLRLSCAASGFTFYTYAMRLYRQAPGKERELVAAISKSGGSTYYADSVKGRFTISRDNAKNTVYLQMNSLKPEDTAVYYCAAVVVYFDEYDYWGQGTQVTVSS” is “low polyreactivity”; for “QVQLVESAGGLVQAGGSLRLSCAASGSTFQYYAMGWYRLAPGKDRELVATITLIAGSTYADSVKGRFTISRDNAKNTVYLQMNSLNPEDTEVYYCAADDGGYETPELLYGGRGDDWGQGTQVTVSS” it is “low polyreactivity”; for “QVQLVESGGGLVQAGGSLRLSCAASGLTFIFYAMGWYRQAPGKERELVATIRRSGSTYYADSVKGRFTISRDNAKNTVYLQMNSLKPEDTAVYYCNARYPYSYGDYWGQGTQVTVSS” it is “high polyreactivity”.
As for “QVQLVESGGGLVQAGGRLRLSCAASGRTFANYAMGWYRQAPGKERELVAAITGSGSTNYADSVKGRFTISRDNAKNTVYLQMNSLKPEDTAVYYCAAAYKPYRCLYYPNSIDFGYWGQGTQVTVSS”, the “polyreactivity (PSR sort gate)” value is “high polyreactivity”.
Consider “QVQLVESGGGLVQAGGSLRLSCAASGRIFVYNTMGWYRQAPGKERELVAAITSGGNTYYADSVKGRFTISRDNAKNSVYLQMNSLKPEDTAVYYCNAYPGYDPYRRYDYWGQGTQVTVSS”, for which the “polyreactivity (PSR sort gate)” value is “high polyreactivity”.
Then “QVQLVESGGGLVQAGGSLRLSCAASGSIFRKNAMGWYRQAPGKETELVAAITGSGRTTYADSVKGRFTISRDNAKNTVYLQMNSLKPEDTAVYYCAADVNYYQHRLYYWGQGTQVTVSS”, with “low polyreactivity”; and “QVQLVESGGGLVQAGGSLRLSCAASGIIFRVYAMGWYRQAPGKERELVASITDRGTRTYYADSVKGRFTISRDNAKNTVYLQMNSLKPEDTAVYYCADEPNYLYWGFFSVGYDYWGQGTQVTVSS”, with “high polyreactivity”; and “QVQLVESGGGLVQAGGSLRLSSAASGYIFDRYTMGWYRQAPGKERELVASISRRGGSTYYADSVKGRFTISRDNAKNTVYLQMNSLKPEDTAVYYCAAPNALGYLFQGFDYWGLGTQVTVSS”, with “high polyreactivity”.
The entry for “QVQLVESGGGLVQAGGSLRLSCAASGIIFRNYAMGWYRQAPGKERELVATITGDGGSTYYADSVKGRFTISRDNAKNTVYLQMNSLKPEDTAVDYCAADRPYAGRYWKGYHSALYDYWGQGTQVTVSS” is “low polyreactivity”.
Then “QVQLVESGGGLVQEGGSLRLSCAASGRIFYSNAMGWYRQAPGKERENVAAISWSGGGTYYADSVKGRFTISRDNAKNTVYLQMNSLKPEDTAVYYCAAVFGYSWAFEYDYWGQGTQVTVSS”, with “low polyreactivity”; and “QVQLVESGGGLVQAGGSLRLSCAASGSIIGTNVMGWYRQAPGKERELVASISYRDGTTYYADSVKGRFTISRDNAKNTVYLQMNSLKPEDTAVYYCAVANYYSYYWGQGTQVTVSS”, with “low polyreactivity”.
For “QVQLVESGGGLVQAGGSLRLSCAASGSTFPSYAMGWYRQAPGKERELVAAITNGGSTTYADSVKGRFTISRDNAKNTVYIQMNSLKPEDTAVYYCAARYYYYYYYIRRDYWGQGTQVTVSS”, the “polyreactivity (PSR sort gate)” value is given as “low polyreactivity”.
The entry for “QVQLVESGGGLVQAGGSLRLSCAASGRTFRWYAMGWYRQAPGKERELVAAITSGGGTYYADSVKGRFTIARDNAKNTVYLQMNSLKPEDTAVYYCNKLHRDRYDYWGQGTQVTVSS” is “high polyreactivity”; for “QVQLVESGGGLVQAGGSLRLSCAASGPTLRSYAMGWYRQAPGKERELVAAITRASGARTFYADSVKGRFTISRDSAKNTVYLQMNSLKPEDSAGYYCTAVGRSDLFEYWGQGTQVTVSS” it is “high polyreactivity”.
Then “QVQLQESVGGLVQACGSLRLSCAASGYIFSHQYMGWYRQAPGKERELVASISPGATTNYADSVKGRFTISRDNAKNTVYLQMNSLKPEDTAVYYYAVYQILDRRLSYWGQGTQVTVSC”, with “high polyreactivity”.
The entry for “QVQLVESGGGLVQAGGSLRLSCAASGFIFNINTMGWYRQAPGKERELVAAITLNGDGTYYADSVKGRFTISRDNAKNTVDIQMNSLNPADTAVDYCNAATWYYYYVSRETYYFDVDYWGQGTQVTVSS” is “low polyreactivity”.
For the sequence “QDQLEESGGGLVQEGGSLRLSCAASGFIFPRYAMGWYRQAPGKERELVAAISRSGGITRYADSVKGRFSISRDNAKNTVYLQMISLKPEDTAVYYCAAARSYWAKYYYWGQGTQVTVSS”, the “polyreactivity (PSR sort gate)” value is listed as “high polyreactivity”.
Regarding “QVQLVESGGGLVQAGGSLRLSCAASGNTFVQNDMGWYRQAPGKEREFVAAITWIGGSTRYADSVKGRFTISRDNAKNTVYLQMNSLKPEDTAVYYCAVKPVGWPRYRVDYWGQGTQVTVSS”, the “polyreactivity (PSR sort gate)” value is given as “high polyreactivity”.
Then “QVQLVESGGGLVQAGGSLRLSCAASGFTFKYYVMGWSRQAPGKERELVASLSKRGGSTRYADSVKGRFTISRDNAKTTFYLQMHSLKPEDTAVYYCAAAFVRPPPYVGYSRFDYWGQGTQVTLSS”, with “high polyreactivity”; and “QVQLVESGGGLVQAGGSLRLSCAASGRTFGTNAMGWYRQAPGKERELVAAISRRGGSTYYADSVKGRFTISRDNAKNTVYLQMNSLKPEDTAVYYCNVVTKFTGRGYDYWGQGTQVTVSS”, with “high polyreactivity”.
The entry for “QVQLVESGGGLVQAGGSLRLSCAASGRIFHYYAMGWYRQAPGKERELVAAISWSGGSTYYADSVKGRFTISRDNAKNTVYLQMNSLKPEETAVYYCAARYVKTKGSFVVGYGYWGQGTQVTLSS” is “high polyreactivity”; for “QVQLVESGGGLVQAGGSLRLSCAASGSIFYHNAMGWYRQAPGKERELVARISSRGGSTYYADSVKGRFTISRDNAKNTVYLQMNSLKPEDTAVYYCNNAYRYTSAYDYWGQGTQVTVSS” it is “high polyreactivity”.
Then “QVQLVESGGGLVQAGGSLRLSCAASGRIFVDYAMGWYRQAPGKERELVAAIRSSGGSTYYADSVKGRFTISRDNAKNTVYLQMNSLKPEDTAVYYCNTPKYLRASSGYNYWGQGTQVTVSS”, with “high polyreactivity”.
In the case of “QVQLVESGGGLVQAGGSLRLSCAASGRIFWVYAMGWYRQAPGKEREFVADITWTGGSTYYADSVKGRFTISRDNAKNTVYLQMNSLKPEDTAVYYCAADSWSNYDYWGQGTQVTVSS”, the “polyreactivity (PSR sort gate)” value is recorded as “high polyreactivity”.
Then “QDQLVESGGGLVQAGGCLRLSCAASGSIFYIYGRGWYRQEPGKERELVAAISRSGGRTYYADSVKGRFTISRDTANNTVYLQMNSLKPEDTAVYYCAARDHYSTGGMNYWGQGTQVTVSS”, with “high polyreactivity”; and “QVQLVESGGGLVQSGGSLRLSCAASGLTFKENVMGWYRQAPGKERELVAAISTGASTYYADSVKGRFTISRDNAKNTVYLQMNSLKPEDTAVYYCAKRVTRWYGYWGQGTQVTVSS”, with “high polyreactivity”.
